Test results published in US8846866.
Residue numbers refer to the chain shown, from its start.

B1: Strep FGE Cys272Ser mutant (protein)
chain: AVAAPSPAAAAEPGPAARPRSTRGQVRLPGGEFAMGDAFGEGYPADGETPVHTVRLRPFHIDETAVTNARFAAFVKATGHVTDAERFGSSAVFHLVVAAPDADVLGSAAGAPWWINVRGAHWRRPEGARSDITGRPNHPVVHVSWNDATAYARWAGKRLPTEAEWEYAARGGLAGRRYAWGDELTPGGRWRCNIWQGRFPHVNTAEDGHLSTAPVKSYRPNGHGLWNTAGNVWEWCSDWFSPTYYAESPTVDPHGPGTGAARVLRGGSYLSHDSYCNRYRVAARSSNTPDSSSGNLGFRCANDADLTSGSAAE
B2: Strep FGE Trp234Phe mutant (protein)
chain: B1 chain with W233F, S271C
B3: Streptomyces coelicolor formylglycine generating enzyme (Strep FGE, SCO7548), recombinant wild type (protein)
chain: B1 chain with S271C
B4: Strep FGE Cys277Ser mutant (protein)
chain: B1 chain with S271C, C276S
B5: Mycobacterium tuberculosis formylglycine generating enzyme (Mtb FGE, Rv0712), recombinant wild type (protein)
chain: LTELVDLPGGSFRMGSTRFYPEEAPIHTVTVRAFAVERHPVTNAQFAEFVSATGYVTVAEQPLDPGLYPGVDAADLCPGAMVFCPTAGPVDLRDWRQWWDWVPGACWRHPFGRDSDIADRAGHPVVQVAYPDAVAYARWAGRRLPTEAEWEYAARGGTTATYAWGDQEKPGGMLMANTWQGRFPYRNDGALGWVGTSPVGRFPANGFGLLDMIGNVWEWTTTEFYPHHRIDPPSTACCAPVKLATAADPTISQTLKGGSHLCAPEYCHRYRPAARSPQSQDTATTHIGFRCVADPVSG

Target: T1, synthetic 13-residue sulfatase consensus motif peptide LCSPSRGSLFTGR
T1 chain: LCSPSRGSLFTGR

Row | Protein | conversion of cysteine to FGly in the peptide, by mass spectrometry (FGE activity assay)
1 | B1 | serine mutants were unable to generate FGly in vitro
2 | B2 | mutation of Trp234 to Phe did not abolish activity
3 | B3 | WT Strep FGE was able to oxidize the synthetic peptide
4 | B4 | serine mutants were unable to generate FGly in vitro
5 | B5 | Recombinant Rv0712 was able to modify a synthetic peptide containing the sulfatase motif as determined by mass spectrometry
